Data on one molecule can be found in publication PMC3234216 (PLoS Pathogens, 2011).

This experiment addresses PA63 heptamer (63 kD form of anthrax toxin protective antigen) (Bacillus anthracis, UniProt P13423). The experiment is described as follows: NMR titration. To be noted: both partners purified.

Sequence of PA63 heptamer (63 kD form of anthrax toxin protective antigen) (P13423 197-764): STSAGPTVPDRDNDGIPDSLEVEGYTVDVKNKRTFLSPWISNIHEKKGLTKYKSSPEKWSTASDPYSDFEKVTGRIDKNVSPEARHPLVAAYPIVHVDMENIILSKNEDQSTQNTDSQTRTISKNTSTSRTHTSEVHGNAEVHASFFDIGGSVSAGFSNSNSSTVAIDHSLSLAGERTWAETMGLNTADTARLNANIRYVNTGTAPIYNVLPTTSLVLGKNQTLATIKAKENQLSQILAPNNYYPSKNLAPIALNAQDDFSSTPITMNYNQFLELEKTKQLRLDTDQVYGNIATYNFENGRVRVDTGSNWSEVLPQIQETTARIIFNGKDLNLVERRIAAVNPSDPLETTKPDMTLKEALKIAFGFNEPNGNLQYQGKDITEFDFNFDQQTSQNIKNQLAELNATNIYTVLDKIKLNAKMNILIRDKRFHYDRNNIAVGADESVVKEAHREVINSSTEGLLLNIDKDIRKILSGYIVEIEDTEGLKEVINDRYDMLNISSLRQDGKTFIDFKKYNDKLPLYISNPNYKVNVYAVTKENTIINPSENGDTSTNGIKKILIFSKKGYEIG

B1: ANTXR2 VWA-domain (anthrax toxin receptor type 2, extracellular von Willebrand factor type A domain) (domain or fragment)
chain: SCRRAFDLYFVLDKSGSVANNWIEIYNFVQQLAERFVSPEMRLSFIVFSSQATIILPLTGDRGKISKGLEDLKRVSPVGETYIHEGLKLANEQIQKAGGLKTSSIIIALTDGKLDGLVPSYAEKEAKISRSLGASVYCVGVLDFEQAQLERIADSKEQVFPVKGGFQALKGIINSILAQSC
notes: also called capillary morphogenesis protein 2; CMG2
As to B1, the binding result is given as “binds”.
